Target: cruzain (Trypanosoma cruzi, UniProt P25779)
Type: biochemical
Settings: read-out: IC50 (μM) cruzain; triplicate; phosphate buffer pH 6.3, 37 °C

cruzain, sequence (P25779 123-467): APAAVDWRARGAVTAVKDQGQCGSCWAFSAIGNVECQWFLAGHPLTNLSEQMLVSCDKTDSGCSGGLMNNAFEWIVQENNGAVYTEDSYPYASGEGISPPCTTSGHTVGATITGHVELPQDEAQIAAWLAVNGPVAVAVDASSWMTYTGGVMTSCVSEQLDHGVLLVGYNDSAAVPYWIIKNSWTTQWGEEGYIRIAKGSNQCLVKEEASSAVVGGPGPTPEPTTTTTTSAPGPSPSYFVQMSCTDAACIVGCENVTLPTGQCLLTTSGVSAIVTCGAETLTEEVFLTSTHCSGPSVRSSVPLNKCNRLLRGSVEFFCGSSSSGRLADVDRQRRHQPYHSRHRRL

B1: cystatin (protein)
chain: SEDRSRLLGAPVPVDENDEGLQRALQFAMAEYNRASNDKYSSRVVRVISAKRQLVSGIKYILQVEIGRTTCPKSSGDLQSCEFHDEPEMAKYTTCTFVVYSIPWLNQIKLLESKCQ
modifications: two disulfides; Limits are the mature chain
IC50: 0.0085 ± 0.025 µM
